The data set “crystal structure” concerns the molecule itself. In words: crystal structure.
The data set “SEC” concerns the molecule itself. In words: SEC.

Changes are numbered by the printed parent chain. Names may count otherwise.

B1: Rhizobium etli pyruvate carboxylase T882A mutant (enzyme)
chain: PISKILVANRSEIAIRVFRAANELGIKTVAIWAEEDKLALHRFKADESYQVGRGPHLARDLGPIESYLSIDEVIRVAKLSGADAIHPGYGLLSESPEFVDACNKAGIIFIGPKADTMRQLGNKVAARNLAISVGVPVVPATEPLPDDMAEVAKMAAAIGYPVMLKASWGGGGRGMRVIRSEADLAKEVTEAKREAMAAFGKDEVYLEKLVERARHVESQILGDTHGNVVHLFERDCSVQRRNQKVVERAPAPYLSEAQRQELAAYSLKIAGATNYIGAGTVEYLMDADTGKFYFIEVNPRIQVEHTVTEVVTGIDIVKAQIHILDGAAIGTPQSGVPNQEDIRLNGHALQCRVTTEDPEHNFIPDYGRITAYRSASGFGIRLDGGTSYSGAIITRYYDPLLVKVTAWAPNPLEAISRMDRALREFRIRGVATNLTFLEAIIGHPKFRDNSYTTRFIDTTPELFQQVKRQDRATKLLTYLADVTVNGHPEAKDRPKPLENAARPVVPYANGNGVKDGTKQLLDTLGPKKFGEWMRNEKRVLLTDTTMRDGHQSLLATRMRTYDIARIAGTYSHALPNLLSLECWGGATFDVSMRFLTEDPWERLALIREGAPNLLLQMLLRGANGVGYTNYPDNVVKYFVRQAAKGGIDLFRVFDCLNWVENMRVSMDAIAEENKLCEAAICYTGDILNSARPKYDLKYYTNLAVELEKAGAHIIAVKDMAGLLKPAAAKVLFKALREATGLPIHFHTHDTSGIAAATVLAAVEAGVDAVDAAMDALSGNTSQPCLGSIVEALSGSERDPGLDPAWIRRISFYWEAVRNQYAAFESDLKGPASEVYLHEMPGGQFTNLKEQARSLGLETRWHQVAQAYADANQMFGDIVKVAPSSKVVGDMALMMVSQDLTVADVVSPDREVSFPESVVSMLKGDLGQPPSGWPEALQKKALKGEKPYTVRPGSLLKEADLDAERKVIEKKLEREVSDFEFASYLMYPKVFTDFALASDTYGPVSVLPTPAYFYGLADGEELFADIEKGKTLVIVNQAVSATDSQGMVTVFFELNGQPRRIKVPDRAHGATGAAVRRKAEPGNAAHVGAPMPGVISRVFVSSGQAVNAGDVLVSIEAMKMETAIHAEKDGTIAEVLVKAGDQIDAKDLLAVYGG
modifications: biotin tethered to Lys1119
Regarding B1, the “stoichiometry N” value in “crystal structure” is 4.

B2: wild-type Rhizobium etli pyruvate carboxylase (enzyme)
chain: B1 chain with A881T
With B2, the “stoichiometry N” value in “SEC” is 4.

The term stoichiometry N denotes a count of units in the complex or per binding partner.

The record behind these values is article PMC3214759 (Biochemistry, 2011).
